The values below are quoted from earlier work in patent publication US20260070964A1, “IL-12 GENE THERAPY AND ANTI-VEGF COMBINATION FOR TREATING CANCER” (IMUNON, INC., priority 2022, published 2026).

For data set [1] the following is noted: human clinical trial.
The conditions of data set [2]: several experimental trials and an initial human trial.
Data set [3] relates to established tumors. Particulars: animal models.

For the substance “recombinant IL-12: recombinant interleukin-12 protein”, the “toxicity on intraperitoneal administration” value in data set [1] was “Dose limiting toxicity was also observed”. For the same substance, the “toxicity on systemic administration” value in data set [2] was “dose limiting toxicity”. Further, the antitumor effects result in data set [3] is on record as “profound T-cell mediated antitumor effects causing regression of established tumors”.
